From paper PMC6155126

How the values were obtained:
PAXX (cleaved) = PAXX (cleaved) (Homo sapiens, UniProt Q9BUH6 1-204); experiment: EMSA; 0.5 µM PAXX; EMSA: 50 mM Tris-HCl pH 7.5, 100 mM KCl, 2.5 mM MgCl2, 1 mM DTT, 4% glycerol, 0.05% Triton X-100, 0.1 mg/ml BSA, 10-20 nM DNA, 30 min at 25 °C; 4-5% native PAGE, 0.5x TBE, 4 °C; settings: protein: recombinant; tags: GST tag cleaved (PreScission); chain copies: 2; label: 5' IRDye 700 on one strand; 5-nt gap
Pol λ WT = Pol λ WT (Homo sapiens, UniProt Q9UGP5 1-575); experiment: EMSA; 40 or 200 nM Pol λ; EMSA: 50 mM Tris-HCl pH 7.5, 100 mM KCl, 2.5 mM MgCl2, 1 mM DTT, 4% glycerol, 0.05% Triton X-100, 0.1 mg/ml BSA, 10-20 nM DNA, 30 min at 25 °C; 4-5% native PAGE, 0.5x TBE, 4 °C; settings: protein: recombinant; tags: FLAG; label: 5' IRDye 700 on one strand; 5-nt gap

B1: 5nt-gapped dsDNA 30-mer (dsDNA)
DNA 1: ACTGGCCGTCGTTCTATTGTACTCACTGTGATC
DNA 2: GATCACAGTGAGTAC
DNA 3: AACGACGGCCAGT
binding result (PAXX (cleaved)): no binding | binding result (Pol λ WT): binds
